Experimental data taken from PMC6965139, “Crystal structures of fukutin-related protein (FKRP), a ribitol-phosphate transferase related to muscular dystrophy” (Nature Communications, 2020).
Blank lines part the entries; values can stand above or below the molecule they belong to.

What was measured:
[1] = target: T1, sFKRP (secreted type, His/Myc, WT) (Homo sapiens, UniProt Q9H9S5); experiment: ribitol-phosphate transfer, HPLC and MALDI-TOF MS; type: biochemical; conditions: 200 uM CDP-Rbo, 40 uM RboP-(phospho-)core M3 peptide, 10 mM MnCl2 and MgCl2, pH 6.5, 310 K; enzyme on anti-Myc agarose
T1 construct: gene FKRP; Asn33 to C-terminus in ss1-His/Myc-pcDNA3.1; secreted from HEK293T; immunoprecipitated on anti-c-Myc agarose; tags kept
T1 sequence (Q9H9S5 33-495): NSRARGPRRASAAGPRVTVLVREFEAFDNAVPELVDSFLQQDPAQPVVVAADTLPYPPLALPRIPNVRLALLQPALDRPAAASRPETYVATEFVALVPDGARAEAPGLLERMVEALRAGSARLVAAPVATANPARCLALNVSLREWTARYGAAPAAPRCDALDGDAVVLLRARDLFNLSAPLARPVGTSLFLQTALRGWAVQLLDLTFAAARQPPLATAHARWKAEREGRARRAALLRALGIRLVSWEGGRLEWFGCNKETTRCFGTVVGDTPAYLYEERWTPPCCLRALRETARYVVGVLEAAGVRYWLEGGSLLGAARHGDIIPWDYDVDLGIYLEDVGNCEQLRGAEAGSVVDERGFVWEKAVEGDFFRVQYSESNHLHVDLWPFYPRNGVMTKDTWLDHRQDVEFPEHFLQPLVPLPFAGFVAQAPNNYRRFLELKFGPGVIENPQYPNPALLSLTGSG

[2] = target: the molecule itself; experiment: crystal structure; sFKRP without substrates, Mg2+ and Ba2+ bound forms; four subunits in the asymmetrical unit; hanging-drop vapor diffusion at 293 K, PEG 4000, HEPES-NaOH pH 7.5; interfaces judged with ePISA
[3] = target: secreted type of FKRP Tyr88Phe mutant (Asn33 to the C-terminus, His/Myc) (human) (UniProt Q9H9S5)
[4] = target: secreted type of FKRP Leu276Ile mutant (Asn33 to the C-terminus, His/Myc) (human) (UniProt Q9H9S5)
[5] = target: secreted type of FKRP Ser221Arg mutant (Asn33 to the C-terminus, His/Myc) (human) (UniProt Q9H9S5)

Molecule: Nc1ccn([C@@H]2O[C@H](COP(=O)(O)OP(=O)(O)OC[C@@H](O)[C@@H](O)[C@@H](O)CO)[C@@H](O)[C@H]2O)c(=O)n1 [CDP-Rbo]
- ribitol-phosphate transfer, HPLC and MALDI-TOF MS [1]: Enzymatic activity of sFKRP with CDP-Rbo and the RboP-(phospho-)core M3 peptide

B1: soluble form of fukutin-related protein (sFKRP, residues 45 to C-terminus) (enzyme, human, UniProt Q9H9S5 45-495, looked up)
chain: AGPRVTVLVREFEAFDNAVPELVDSFLQQDPAQPVVVAADTLPYPPLALPRIPNVRLALLQPALDRPAAASRPETYVATEFVALVPDGARAEAPGLLERMVEALRAGSARLVAAPVATANPARCLALNVSLREWTARYGAAPAAPRCDALDGDAVVLLRARDLFNLSAPLARPVGTSLFLQTALRGWAVQLLDLTFAAARQPPLATAHARWKAEREGRARRAALLRALGIRLVSWEGGRLEWFGCNKETTRCFGTVVGDTPAYLYEERWTPPCCLRALRETARYVVGVLEAAGVRYWLEGGSLLGAARHGDIIPWDYDVDLGIYLEDVGNCEQLRGAEAGSVVDERGFVWEKAVEGDFFRVQYSESNHLHVDLWPFYPRNGVMTKDTWLDHRQDVEFPEHFLQPLVPLPFAGFVAQAPNNYRRFLELKFGPGVIENPQYPNPALLSLTGSG
notes: fukutin-related protein (FKRP), human, residues 45 to C-terminus, 451 amino acid residues in total; stem domain 45-287, catalytic domain 288-495; Sugar chains were removed by Endo H glycosidase before the last gel filtration; also called lumenal region of human FKRP; not shown: protein A, N-terminal, cleaved
- stoichiometry N [2]: 4

Other lines, results leading:

- glycosyltransferase activity with CDP-Rbo and the RboP-(phospho-)core M3 peptide, relative to the wild-type enzyme (% of the wild-type enzyme) [3]: 20
B2: secreted type of FKRP Tyr88Phe mutant (Asn33 to the C-terminus, His/Myc) (enzyme)
chain: NSRARGPRRASAAGPRVTVLVREFEAFDNAVPELVDSFLQQDPAQPVVVAADTLPFPPLALPRIPNVRLALLQPALDRPAAASRPETYVATEFVALVPDGARAEAPGLLERMVEALRAGSARLVAAPVATANPARCLALNVSLREWTARYGAAPAAPRCDALDGDAVVLLRARDLFNLSAPLARPVGTSLFLQTALRGWAVQLLDLTFAAARQPPLATAHARWKAEREGRARRAALLRALGIRLVSWEGGRLEWFGCNKETTRCFGTVVGDTPAYLYEERWTPPCCLRALRETARYVVGVLEAAGVRYWLEGGSLLGAARHGDIIPWDYDVDLGIYLEDVGNCEQLRGAEAGSVVDERGFVWEKAVEGDFFRVQYSESNHLHVDLWPFYPRNGVMTKDTWLDHRQDVEFPEHFLQPLVPLPFAGFVAQAPNNYRRFLELKFGPGVIENPQYPNPALLSLTGSG

- glycosyltransferase activity with CDP-Rbo and the RboP-(phospho-)core M3 peptide, relative to the wild-type enzyme (% of the wild-type enzyme) [4]: 50
B3: secreted type of FKRP Leu276Ile mutant (Asn33 to the C-terminus, His/Myc) (enzyme)
chain: NSRARGPRRASAAGPRVTVLVREFEAFDNAVPELVDSFLQQDPAQPVVVAADTLPYPPLALPRIPNVRLALLQPALDRPAAASRPETYVATEFVALVPDGARAEAPGLLERMVEALRAGSARLVAAPVATANPARCLALNVSLREWTARYGAAPAAPRCDALDGDAVVLLRARDLFNLSAPLARPVGTSLFLQTALRGWAVQLLDLTFAAARQPPLATAHARWKAEREGRARRAALLRALGIRIVSWEGGRLEWFGCNKETTRCFGTVVGDTPAYLYEERWTPPCCLRALRETARYVVGVLEAAGVRYWLEGGSLLGAARHGDIIPWDYDVDLGIYLEDVGNCEQLRGAEAGSVVDERGFVWEKAVEGDFFRVQYSESNHLHVDLWPFYPRNGVMTKDTWLDHRQDVEFPEHFLQPLVPLPFAGFVAQAPNNYRRFLELKFGPGVIENPQYPNPALLSLTGSG

- glycosyltransferase activity with CDP-Rbo and the RboP-(phospho-)core M3 peptide, relative to the wild-type enzyme (% of the wild-type enzyme) [5]: 5
B4: secreted type of FKRP Ser221Arg mutant (Asn33 to the C-terminus, His/Myc) (enzyme)
chain: NSRARGPRRASAAGPRVTVLVREFEAFDNAVPELVDSFLQQDPAQPVVVAADTLPYPPLALPRIPNVRLALLQPALDRPAAASRPETYVATEFVALVPDGARAEAPGLLERMVEALRAGSARLVAAPVATANPARCLALNVSLREWTARYGAAPAAPRCDALDGDAVVLLRARDLFNLSAPLARPVGTRLFLQTALRGWAVQLLDLTFAAARQPPLATAHARWKAEREGRARRAALLRALGIRLVSWEGGRLEWFGCNKETTRCFGTVVGDTPAYLYEERWTPPCCLRALRETARYVVGVLEAAGVRYWLEGGSLLGAARHGDIIPWDYDVDLGIYLEDVGNCEQLRGAEAGSVVDERGFVWEKAVEGDFFRVQYSESNHLHVDLWPFYPRNGVMTKDTWLDHRQDVEFPEHFLQPLVPLPFAGFVAQAPNNYRRFLELKFGPGVIENPQYPNPALLSLTGSG
